Experimental data: the DeepSol protein solubility set

Experiment: soluble on expression in E. coli; label from the status in PepcDB or PDB records

Row | Sequence | soluble on expression in E. coli
1 | TDVDAFTLGEDLAYTPGDVIYQNDLIQLIQYKASTKKVNEVPLLFIPPFINKYYVLDMDEQKSLIKWAVGQGHTVFVISWINPDKTLSHKGFNDYMKEGPIASLDVIEELTKSKKVNVVGYCIGGTLLATTQSYLLAKGDTRINSLTFLTTLLDFEEPGEIGVYLSEKMLPFLKKDIKEKGLLDGRVLGLAFSMLRENSLFWSYFVNNYLKGKDPAPFDILYWNSDSSNLPAETFDFYMTNTYQENNLIKDGAVEVEGVPIELSKIDTPSYFLATIADHIVLWQASYKGAKALSGPTRFVLAGSGHL | not soluble
2 | THGWNFQVSANAAYNKNEVMDLKNGGARIWSGKYFNQEGYAINSIGGYIAEGLFKTEEEVANSATIPGTDTAPGDIKYRDINNDGKIDGEDRVYIGNTMPKWTFGLNLFAEWKGLDATFLFQGAADVQGYLAGPGVVGEMIGAKGKPSYMYRDCWDAETNPNGKFPRAFSSYRQNNSIYNPSSFWIVNSSYLRLKNFQLGYTLPKEWCNMMGISRIRVYYSGQNLLTFTKFDKGFDPESPEGGSSYPQVKTNTFGLNITF | not soluble
3 | TKAVTFYEDINYGGASVSLQPGNYTLSQLNTAKIPNDWMTSLKVPSGWTVDVYENDNFTGTKWTYTSDTPWVGNDANDKMTSVKIYST | soluble
4 | TKDFEWKTTVTASHNANKLLSLSNDLYETSNQIDHAYLGEPINLSTQRMEVGRSMGQFYGMKSVGVSENGLWMVENTKTGEIEEFTDNMLSNDDYRQYLGNALPKLYLGWNNSFRYKNFDLSFQMTGQFGFKILNEPRAYYENNSIAYNRLKSVQKAPYGGQYTLSTAQKQTFVSYYLEDGDFLKMTNITLGYNIPLKSSKFVKNIRAYVSADNLFCITGYDGLDPEMSNGDIWSLGIDWRDKYPSTRSFTFGLNVSF | not soluble
5 | TKNWSWTASANAAWQKVRIKNLTLTPGAPSPDTEVGPWIDAYQMQVFSTDYAPYSFYLYKQLYDAETGQPIEGLYADLDGDGEITNKDRYHHHSPAPDWILGFSTSLRYKKWTLSTSLRANIGGYIFNGMAMNTGAWETMSYNDYQLNNLNRSFLDTRFTKRQFLSDHYLENASFLKMDNLQLSYDFGRIYKTIGLHASAMVQNVFTVTKYKGVDPETANGVDTSVYPRPRTYSITIGLNF | not soluble
6 | TMEPERLFNLIVKTTVDTLRAQIGYIILYSPREKNLQVTTLLGHTIPEGSTTTLPMKQSSVSTWVIENRRPLLITTMDEWPQFDRYSSLGYERRTLICAPLQIKDEIIGTITVVNKDDNSTYTIQELELLSTIAAQASIAIKNAQLYDEQQATYLHTIQALVSAIEAS | not soluble
7 | TMSSCVSSQPSSNRAAPQDELGGRGSSSSESQKPCEALRGLSSLSIHLGMESFIVVTECEPGCAVDLGLARDRPLEADGQEVPLDSSGSQARPHLSGRKLSLQERSQGGLAAGGSLDMNGRCICPSLPYSPVSSPQSSPRLPRRPTVESHHVSITGMQDCVQLNQYTLKDEIGKGSYGVVKLAYNENDNTYYAMKVLSKKKLIRQAGFPRRPPPRGTRPAPGGCIQPRGPIEQVYQEIAILKKLDHPNVVKLVEVLDDPNEDHLYMVFELVNQGPVMEVPTLKPLSEDQARFYFQDLIKGIEYLHYQKIIHRDIKPSNLLVGEDGHIKIADFGVSNEFKGSDALLSNTVGTPAFMAPESLSETRKIFSGKALDVWAMGVTLYCFVFGQCPFMDERIMCLHSKIKSQALEFPDQPDIAEDLKDLITRMLDKNPESRIVVPEIKLHPWVTRHGAEPLPSEDENCTLVEVTEEEVENSVKHIPSLATVILVKTMIRKRSFGNPFEGSRREERSLSAPGNLLTKKPTRECESLSELKGTKKKKGLDSMTSTVAAGWLDRRV | soluble
8 | TNADYPALYLANFLLGTSETSRLWHRVRETEGLSYNVRSNLSVSSYEPSANWTIYAIYAPQNRARLEKAISEELARALKDGFTDQEVRDGVVALLNYRNLARAQDDVLADTWVNYMQTGRSFQWSADMDRKLEALTPDQVNAALRKYLKPDAFSTAVAGDFTKKSAP | not soluble
9 | TNTEEFCSGCHAPIVKEIQETIHYSNRSGVRAICSDCHVPHNWTDKIVRKVQASKELFAHYVTKTIDTEEKFKERRAHLAEREWHRMKENNSQECRNCHEFDYMDFSEQGPRSAKQHSTALASGEKTCVDCHKGIAHKL | not soluble
10 | TPAQLISIAVTPINPSVAKGLIRQFKATGTYTDHSVQDVTALATWSSSNPGKAMVNNVTGSVTTVATGNTNIKATIDSISGSSVLNVTPALLTSIEITPTINSITHGLTKQFKATGIFSDKSTQNLTQLVTWISSDPSKIEIENTSGKKGIATASKLGSSNIKAVYKFIQSSPIPITVTDLKLKSITISPSSSSIAKGLTQQFKAIGTFIDGSEQEITNLVTWYSSKSDVAPINNAANAKGLATALSIGSSNISAIYNSISSNKINFNVSAATLDSIKINPVNNNIAKGLTQQYTALGVYSDSTIQDISDSVTWSSSNSDSISISNSTETKGKATALQIGNSKITATYNSISENIDITVSAATL | not soluble
11 | TPLSQSSSSKNASDVSGSIQPVDSKSGLQMLFSGYRGIGGVQTLDLQQMSSDIPNAETKTVADQVINAWKQMKYTPFGRSTGSFTIRLNPEHLGFVTIKLTNENGMFQSKIIASSQSAKELLEQHLPQLKQSLPNMAVQIDRFTLPVQS | not soluble
12 | TQYKYAWIINGLTKSTGETYIPTAADDGFNIRLEVTGQDAYGQVTEMQYVVYAFSKVETIFSDMYAFAALKTDGSVVTWGYSDYGGDSSSVAGQLTSGVKVIDSTSSAFAAIKEDGSVVTWGDSPYGGDSSSVAGKLTSGVKVIYSNSSAFAAVKQDGSVVTWGSYGGDSSSVAGQLTSGVKVIYSTDSEFGAFAAVKEDGSVVTWGNSPYGGDSSSVAGQLTSGVKVIYSTNNAFAAVKEDGSVVTWGDSGAGGDSSSVAGQLTSGVKVIYSTNNAFAAVKEDGSVVTWGGYGGDSSSVAGQLTSGVKVIYSTNNAFAAVKEDGSVVTWGDSGNGGDSSSVAGQLTSGVKVIDSTYSAFAAVKEDGSVVAWGNSGYGGDSSSVAGQLTSGVKVIDSTTSAFAVVKEDGSVVTWGGSFYGGDSSSVAGQLTSGVKVIYSTSSAFAVVKEDGSVVTWGGSFYGGDSSSVADKLAPNLFLIETSIN | not soluble
13 | TRAFKWTTNFNISFNKNKVLALSENQTALLTAAQFDQNYNGQSSYIAKVGLPMGLMYGYVYEGTYKYDDFNKSGNSYSLKPGVPHYSTETNTQPGMPKYADLNGDGVVDSNDRTIIGRGLPIHTGGFTNNFEYKGIDLSIFFQWSYGNDIMNANRLFFESSNNRSRELNQFASYANRWTPENPTSDIPAATNSSSNRVISSRIIEDGSYLRLKNVTVGYTFPAKLVKKWKIDKARVYVAAQNLWTCTGYSGYDPEVSVRNSALTPGLDYSSYPRAYSISFGVSLGF | not soluble
14 | TSADGLKLVANYLEAPSPSNTTIILAHGYRGKSGKVEMAGLARMYNQKFGYNVLMPDARAHGESEGKNIGFGWPERKDYVQWTNQVLDKNGDDTEIVLHGVSMGSSTVLMTSAEKLPKQVKSIIADCGYTSMDAELAYQLKAMFHLPKFPIIPMASLINKVKEGFFFSEASAINAVAETDLPIFYIHGDSDAFVPTSMVEELYDATKSYKEKWVVKGAEHGQAFTVEPETYEEKVRQFLTKTM | not soluble
